The values that follow come from patent US20230212549A1 (3B PHARMACEUTICALS, published 2023).

The target in experiment [1] is T1, Human recombinant FAP captured on anti-FAP antibody (SPR) (human, UniProt Q12884 26-760).
T1 construct: whole entry of human FAP named; also called rhFAP
Nature of the experiment: SPR (Biacore), rhFAP captured by anti-FAP antibody; pKD category A = >8.0.

Experiment [2] deals with T2, human fibroblast activating protein (FAP) on WI-38 fibroblasts (human, UniProt Q12884 1-760).
T2 construct: FAP-expressing human WI-38 fibroblasts (ECACC)
Nature of the experiment: competitive FACS on WI-38 cells vs 3 nM Cy5-labeled peptide; pIC50 category A = >8.0.

Experiment [3] concerns the target Recombinant human FAP (R&D systems, #3715-SE) (human, UniProt Q12884 26-760). Nature of the experiment: cell-based or functional assay.
Experiment [4] addresses T3, fibroblast activation protein (FAP) on FAP-expressing human WI-38 fibroblasts (human, UniProt Q12884 1-760).
T3 construct: also called human FAP
Nature of the experiment: competitive FACS, WI-38 cells, vs Cy5 tracer m3; D = pIC50 <=6.0.

Experiment [5] has as its target Recombinant human FAP (R&D systems, #3715-SE) (human, UniProt Q12884 26-760). Nature of the experiment: cell-based or functional assay. The source holds these as a separate data set.
In experiment [6] the target is T4, human fibroblast activation protein (FAP) on WI-38 fibroblasts (human, UniProt Q12884 1-760).
T4 construct: FAP-expressing human WI-38 fibroblasts (ECACC)
Put plainly: competitive FACS, WI-38 cells, Cy5-labeled peptide as competitor; C = pIC50 6.1 to 7.0.

Experiment [7] addresses T2, human fibroblast activating protein …. Nature of the experiment: competitive FACS on WI-38 cells vs 3 nM Cy5-labeled peptide; pIC50 category B = 7.1-8.0.

Where “and” joins values, the source holds several entries; their conditions need not be identical. Equal entries are not always repeated. Numbered stars: 1 amine (or outer) side, 2 acyl side, 3 side chain; on linkers, the order of the positions; unused ones are H or OH. Bridge positions count the residues as written; N and C are the ends. Square brackets hold non-standard residues; d marks the D form. Primed or numbered codes have the meaning given here. * marks the point of attachment. tMeBn(DOTA-PP) = 1,3,5-trimethylbenzylidene, two thioethers to Cys, third CH2 bound to one N of piperazine whose other N bears DOTA, O=C(O)CN1CCN(CC(=O)O)CCN(CC(=O)N2CCN(Cc3cc(C[*:1])cc(C[*:2])c3)CC2)CCN(CC(=O)O)CC1; TBMB(SCH2CH2NH-DOTA) = O=C(O)CN1CCN(CC(=O)O)CCN(CC(=O)NCCSCc2cc(C[*:1])cc(C[*:2])c2)CCN(CC(=O)O)CC1; Ttds(6) = 1,13-Diamino-4,7,10-trioxatridecan-succinamic acid, O=C(CCC(=O)[*:2])NCCCOCCOCCOCCCN[*:1]; 3MeBn = 3-Methylbenzylidene (m-xylylene thioether bridge from α,α′-dibromo-m-xylene); Ttds(4) = spacer between chelator and peptide, O=C(CCC(=O)[*:2])NCCCOCCOCCOCCCN[*:1]; N4Ac = 6-Carboxy-1,4,8,11-tetraazaundecane, an N4-chelator, NCCNCC(CNCCN)C(=O)*; NODAGA′ = 1,4,7-triazacyclononane-1-glutaric acid-4,7-diacetic acid chelator; nBu‑CAyl = n-butylaminocarbonyl, CCCCNC(=O)*; Pro(4,4-F2) = O=C(O)[C@@H]1CC(F)(F)CN1; mXylylene = c1cc(C[*:1])cc(C[*:2])c1; PPAc = 4-Carboxymethyl piperazine; NMeF = CN[C@@H](Cc1ccccc1)C(=O)O; Tic = O=C(O)[C@@H]1Cc2ccccc2CN1; Nle = CCCC[C@H](N)C(=O)O; PEG6′ = not defined here; Hexanoyl = CCCCCC(=O)*; Sar = CNCC(=O)O

In the case of {nBu‑CAyl}-CPPTEFC-OH (linker 1-7 via tMeBn(NOPO-AET), also called 3BP-4778) [nBu-CAyl-[C(tMeBn(NOPO-AET))-PPTEFC]-OH], in experiment [1], the pKD was more than 8 pkd. Further, in experiment [2], the pIC50 was more than 8 pic50.

B1: Hex-[Cys(3MeBn)-Pro-4Dfp-Thr-Glu-Phe-Cys]-NH2 (peptide)
peptide: Hexanoyl-CP[Pro(4,4-F2)]TEFC-NH2
modifications: linker 1-7 via mXylylene
SMILES: CCCCCC(=O)N[C@H]1CSCc2cccc(c2)CSC[C@@H](C(N)=O)NC(=O)[C@H](Cc2ccccc2)NC(=O)[C@H](CCC(=O)O)NC(=O)[C@H]([C@@H](C)O)NC(=O)[C@@H]2CC(F)(F)CN2C(=O)[C@@H]2CCCN2C1=O
notes: also called 3BP-3365
With B1, the “pIC50 Category (Activity)” value in experiment [3] was 6.1 pIC50 and 7 pIC50. For the same molecule, the “pIC50 Category (FACS)” value in experiment [4] was not above 6 pIC50.

B2: nBu-CAyl-[Cys(tMeBn(DOTA-AET))-Nmg-Pro-Thr-Gln-Phe-Cys]-NH2 (peptide)
peptide: {nBu‑CAyl}-C[Sar]PTQFC-NH2
modifications: linker 1-7 via TBMB(SCH2CH2NH-DOTA)
SMILES: CCCCNC(=O)N[C@H]1CSCc2cc(CSCCNC(=O)CN3CCN(CC(=O)O)CCN(CC(=O)O)CCN(CC(=O)O)CC3)cc(c2)CSC[C@@H](C(N)=O)NC(=O)[C@H](Cc2ccccc2)NC(=O)[C@H](CCC(N)=O)NC(=O)[C@H]([C@@H](C)O)NC(=O)[C@@H]2CCCN2C(=O)CN(C)C1=O
notes: also called 3BP-4621
Take B2: the pKD in experiment [1] is more than 8 pkd. Take N4Ac-[Ttds(6)]ECPPTEFC-OH (linker 3-9 via 3MeBn, also called 3BP-4233) [N4Ac-Ttds-Glu-[Cys-(3MeBn)-Pro-Pro-Thr-Glu-Phe-Cys]-OH]: the “pIC50 Category (Activity)” value in experiment [5] was not above 6 pIC50. In experiment [6], this molecule gave a pIC50 of 6.1 to 7 pic50. Turning to {N4Ac-PPAc-PEG6′}-[Nle]CPPTEFC-OH (linker 2-8 via 3MeBn, also called 3BP-4781) [N4Ac-PPAc-PEG6-Nle-[C(3MeBn)-PPTEFC]-OH], in experiment [7], the pIC50 lay in the range of 7.1 to 8 pic50. The same measure, in the same setting: the figure for {N4Ac-PPAc-Ttds(4)}-[Nle]CPPTEFC-OH (linker 2-8 via 3MeBn, also called 3BP-4782) [N4Ac-PPAc-Ttds-Nle-[C(3MeBn)-PPTEFC]-OH] is 7.1 to 8 pic50; for {NODAGA′-Ttds(4)}-[Nle]CPPTEFC-OH (linker 2-8 via mXylylene, also called 3BP-4714) [NODAGA-Ttds-Nle-[C(3MeBn)-PPTEFC]-OH] it is 7.1 to 8 pic50. On the same count and under the same terms, as for {NODAGA′-Ttds(4)}-[Nle]CPPTEFC-NH2 (linker 2-8 via mXylylene, also called 3BP-4743) [NODAGA-Ttds-Nle-[C(3MeBn)-PPTEFC]-NH2], the figure is 7.1 to 8 pic50.

B3: Hex-[Cys(3MeBn)-Pro-Pro-Thr-Glu-Nmf-Cys]-NH2 (peptide)
peptide: Hexanoyl-CPPTE[NMeF]C-NH2
modifications: linker 1-7 via mXylylene
SMILES: CCCCCC(=O)N[C@H]1CSCc2cccc(c2)CSC[C@@H](C(N)=O)NC(=O)[C@H](Cc2ccccc2)N(C)C(=O)[C@H](CCC(=O)O)NC(=O)[C@H]([C@@H](C)O)NC(=O)[C@@H]2CCCN2C(=O)[C@@H]2CCCN2C1=O
notes: also called 3BP-3358
Take B3: the “pIC50 Category (Activity)” value in experiment [3] is 6.1 pIC50 and 7 pIC50. The “pIC50 Category (FACS)” value in experiment [4] was not above 6 pIC50.

B4: Hex-[Cys(tMeBn(DOTA-PP))-Pro-Gln-Phe-Pro-Thr-Cys]-Asp-NH2 (peptide)
peptide: Hexanoyl-CPQFPTCD-NH2
modifications: linker 1-7 via tMeBn(DOTA-PP)
SMILES: CCCCCC(=O)N[C@H]1CSCc2cc(cc(CN3CCN(C(=O)CN4CCN(CC(=O)O)CCN(CC(=O)O)CCN(CC(=O)O)CC4)CC3)c2)CSC[C@@H](C(=O)N[C@@H](CC(=O)O)C(N)=O)NC(=O)[C@H]([C@@H](C)O)NC(=O)[C@@H]2CCCN2C(=O)[C@H](Cc2ccccc2)NC(=O)[C@H](CCC(N)=O)NC(=O)[C@@H]2CCCN2C1=O
notes: also called 3BP-3857
The molecule B4 had a pIC50 in experiment [6] of 6.1 to 7 pic50.

B5: Hex-[Cys(3MeBn)-Pro-Pro-Thr-Glu-Tic-Cys]-NH2 (peptide)
peptide: Hexanoyl-CPPTE[Tic]C-NH2
modifications: linker 1-7 via mXylylene
SMILES: CCCCCC(=O)N[C@H]1CSCc2cccc(c2)CSC[C@@H](C(N)=O)NC(=O)[C@@H]2Cc3ccccc3CN2C(=O)[C@H](CCC(=O)O)NC(=O)[C@H]([C@@H](C)O)NC(=O)[C@@H]2CCCN2C(=O)[C@@H]2CCCN2C1=O
notes: also called 3BP-3359
As for B5, the “pIC50 Category (Activity)” value in experiment [3] is 6.1 pIC50 and 7 pIC50. In addition, the “pIC50 Category (FACS)” value in experiment [4] was not above 6 pIC50.
